This is an account of results in PMC5446404.

This assay concerns the target recombinant human fortilin (Strep-tag II), biotinylated (human) (UniProt P13693). Briefly: BLI. The settings on record: domain or fragment.

GST-IRE1α-L (aa 1-70), sequence (O75460 19-70): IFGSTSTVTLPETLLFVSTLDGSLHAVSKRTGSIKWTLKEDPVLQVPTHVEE
recombinant human fortilin (Strep-tag II), biotinylated (human), sequence (P13693 whole entry, the tested form may be a part): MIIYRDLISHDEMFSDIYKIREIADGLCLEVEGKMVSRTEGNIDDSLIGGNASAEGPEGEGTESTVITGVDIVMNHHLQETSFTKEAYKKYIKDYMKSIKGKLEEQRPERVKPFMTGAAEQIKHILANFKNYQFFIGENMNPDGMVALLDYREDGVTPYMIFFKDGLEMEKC

Turning to “GST-IRE1α-L (aa 1-70) (from UniProt O75460 19-70)”, the Kd was 18 mM.
